# From article PMC5575113, “Creating the Functional Single-Ring GroEL-GroES Chaperonin Systems via Modulating GroEL-GroES Interaction” (Scientific Reports, 2017)
# B1: GroES (natural protein, E. coli, UniProt P0A6F9 1-97, looked up)
# chain: MNIRPLHDRVIVKRKEVETKSAGGIVLTGSAAAKSTRGEVLAVGNGRILENGEVKPLDVKVGDIVIFNDGYGVKSEKIDNEEVLIMSESDILAIVEA
# modifications: DyLight 650 NHS Ester amine reactive dye (labelled)
# notes: GroES, E. coli; one heptameric ring; groES in pET3b; also called cochaperonin
# B2: GroES (natural protein, E. coli, UniProt P0A6F9 1-97, looked up)
# chain: B1 chain
# modifications: DyLight 650 NHS ester on amines (for MST)
# notes: GroES, E. coli, expressed from pET3b; heptamer; also called cochaperonin; wild type GroES
# Key:
# [1] = target: T1, GroEL^SR (GroEL R452A/E461A/S463A/V464A) (E. coli, UniProt P0A6F5 1-548, R452A | E461A | S463A | V464A); test: MST; cochaperonin labelled with DyLight 650, unlabelled GroEL or GroEL^SR titrated (serial dilution of 15 samples), 30 min incubation; 50 mM TrisCl pH 7.5, 100 mM KCl, 10 mM MgCl2, 1 mM EDTA, 2 mM ADP, 0.5 mg/mL BSA; Monolith NT115, 80% LED, 40% IR-laser; settings: both partners purified
# T1 construct: GroEL, E. coli, single-ring variant; groEL^SR in the pTrc vector; also called single-ring GroEL; source: dialysis against 30% methanol, FastQ column
# GroEL = target: T2, GroEL (E. coli, UniProt P0A6F5 1-548); test: MST; cochaperonin labelled with DyLight 650; unlabelled GroEL or GroEL^SR in a serial dilution of 15 samples; 50 mM TrisCl pH 7.5, 100 mM KCl, 10 mM MgCl2, 1 mM EDTA, 2 mM ADP, 0.5 mg/mL BSA; 30 min incubation; settings: both partners purified
# T2 construct: GroEL, E. coli, expressed from pTrc; two heptameric rings (tetradecamer); also called chaperonin; double-ring GroEL; source: E. coli BL21(DE3), purified (methanol dialysis, FastQ column); copies: 14
Kd [1] [nM],Kd (GroEL) [nM],Binder
3.67,,B1
,3.83 ± 0.93,B2
